What was measured:
[1] = biological target: albumin (Sigma A9731) (human) (UniProt P02768); assay: SPR (CM5 chip), albumin immobilised, FcRn in solution, pH 5.8, 25 C
human IgG3 (human) [2] = biological target: human IgG3 (human) (UniProt P01860); assay: SPR (CM5 chip), IgG immobilised, FcRn in solution, pH 5.8, 25 C
human IgG4 (human) [3] = assay: as above
[4] = biological target: albumin (Sigma A9731) (human) (UniProt P02768); assay: SPR (C1 chip), FcRn-biotin on surface, albumin injected, pH 5.8, 25 C
human IgG1 (human) = assay: SPR (C1 chip), FcRn-biotin on surface, IgG injected, pH 5.8; estimated from limited surface saturation
human IgG2 (human) = assay: as above
Sequence of human IgG2 (human) (Fc, as listed by the source limits assumed): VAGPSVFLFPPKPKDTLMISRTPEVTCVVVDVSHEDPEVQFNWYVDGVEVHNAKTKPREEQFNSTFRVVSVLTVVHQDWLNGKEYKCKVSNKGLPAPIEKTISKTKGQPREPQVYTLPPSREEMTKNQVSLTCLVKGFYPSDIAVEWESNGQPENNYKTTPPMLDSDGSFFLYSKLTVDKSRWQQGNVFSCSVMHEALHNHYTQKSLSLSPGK

human IgG3 (human) [5] = biological target: human IgG3 (human) (UniProt P01860); assay: as above
human IgG4 (human) [6] = assay: as above

Sequence of human IgG3 (human) (P01860 other isoform, or with tags, fused parts or gaps): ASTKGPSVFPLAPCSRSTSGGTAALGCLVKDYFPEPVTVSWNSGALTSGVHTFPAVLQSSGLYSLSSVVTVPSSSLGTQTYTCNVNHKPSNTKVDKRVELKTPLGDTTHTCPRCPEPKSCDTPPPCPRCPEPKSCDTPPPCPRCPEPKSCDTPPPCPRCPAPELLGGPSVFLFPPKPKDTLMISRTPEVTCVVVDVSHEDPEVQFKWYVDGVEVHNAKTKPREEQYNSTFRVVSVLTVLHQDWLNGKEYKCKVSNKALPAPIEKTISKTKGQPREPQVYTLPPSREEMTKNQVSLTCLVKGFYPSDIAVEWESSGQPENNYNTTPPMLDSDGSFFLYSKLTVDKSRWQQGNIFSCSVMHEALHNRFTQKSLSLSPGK

Row | Kd [1] [µM] | Kd (human IgG3 (human) [2]) [µM] | Kd (human IgG4 (human) [3]) [µM] | Kd [4] [µM] | Kd (human IgG1 (human)) [µM] | Kd (human IgG2 (human)) [µM] | Kd (human IgG3 (human) [5]) [µM] | Kd (human IgG4 (human) [6]) [µM] | Substance
1 | 0.96 | – | – | – | – | – | – | – | FcRn E133K (extracellular domain with beta2 microglobulin) (from UniProt P61769 21-119) (receptor)
2 | 0.48 | 0.21 | 0.239 | 1.9 | 5.2 | 6.6 | 4.2 | 12.6 | FcRn M118I (extracellular domain with beta2 microglobulin) (from UniProt P61769 21-119) (receptor)
3 | 0.44 | – | – | 1.7 | – | – | – | – | FcRn W131R (extracellular domain with beta2 microglobulin) (from UniProt P61769 21-119) (receptor)

— US20250297287A1
